In a protein production outcome set (Wang et al. 2014):

Assay: label from the status in PepcDB records

Sequence	protein production
MRAPGALLARMSRLLLLLLLKVSASSALGVAPASRNETCLGESCAPTVIQRRGRDAWGPGNSARDVLRARAPREEQGAAFLAGPSWDLPAAPGRDPAAGRGAEASAAGPPGPPTRPPGPWRWKGARGQEPSETLGRGNPTALQLFLQISEEEEKGPRGAGISGRSQEQSVKTVPGASDLFYWPRRAGKLQGSHHKPLSKTANGLAGHEGWTIALPGRALAQNGSLGEGIHEPGGPRRGNSTNRRVRLKNPFYPLTQESYGAYAVMCLSVVIFGTGIIGNLAVMCIVCHNYYMRSISNSLLANLAFWDFLIIFFCLPLVIFHELTKKWLLEDFSCKIVPYIEVASLGVTTFTLCALCIDRFRAATNVQMYYEMIENCSSTTAKLAVIWVGALLLALPEVVLRQLSKEDLGFSGRAPAERCIIKISPDLPDTIYVLALTYDSARLWWYFGCYFCLPTLFTITCSLVTARKIRKAEKACTRGNKRQIQLESQMNCTVVALTILYGFCIIPENICNIVTAYMATGVSQQTMDLLNIISQFLLFFKSCVTPVLLFCLCKPFSRAFMECCCCCCEECIQKSSTVTSDDNDNEYTTELELSPFSTIRREMSTFASVGTHC	failed
MRCMSDDHTHVQEFFEARAADWDSRFPDDGPAHAAAVAELGLREGDRVLDAGCGTGRALPSLRAAVGSSGVVVGVDLTPAMLAAAARAGRGRDGHLLLADVTRLPLGTESLDAVFAAGLIAHLPEPAENLRELARVVRAGGTLALFHPIGRAALAARQGRQITPDDLRAEANLGPLLAGSGWRMTSYVDEDARFLALAVRVKLEHHHHHH	failed
MRDDVFGQSNSLTRADSAEAWDGVLLGFMAHAAVTPQHLARVLELEPDFALAHAIKGLFMLLLGRREMTPVAIEAMAAAERAAAARAITAREGHYLAALRHWLAGNPSRSVQEFEAILRAHPDDTLAMKLSHATRFVLGDPAGMRRSIERVMPAYAPDHAGRGYLLGCHAFALEETGAYDKAEIAGRQALWMVSDDAWGLHAVAHVHEMKGQSELGLDWLAGREAAWSHCNNFRYHVWWHKALMHLDQGQIDQVFDLYDSAIRKDKTDDYRDISNATSLLSRLELEGVNVGDRWEELADLSAARTEDGCLIFADLHYLLALTGDTREDAISRMLHRIKRDADMAQCDTTRRMADPGLAAAQGLEAFGEGQYGQAFDHLLTARGSMQLAGGSHAQRDVFERITIDAGLRAGRLDAVERVLDDRRAKRGGHEDTYALARRALIEAGRDDRNIHSVPAE	failed
MRDFGEILAENRKKKGYSQSDLVNLLSQEGIQVTTKALSKWENNAREPALHVFLTLCQLLDIEDIYESFFGENPYNIMSGLNEEGRNKLIEFADILKASKKFSPLSAKIIPFHHPVEITWEPVSAGTGNYLEDSVKETYDVGHLAPEQTDFGVRISGDSMEPLYHTDDVAWIQKKDSLANGEIGIFYLNGNTYIKELHDEPDGVYLISLNQKYRPIQVLESDSFKIFGKVIGKCKGAEIPGFHLEHHHHHH	not failed
MRDLITNRFTSQRTLREGSVGLLFLLGLGAFGVILLWLNRYTAAGSSYKAVVEFANAGGMQRGATVRYRGVKVGRISQIQPGPNAVEVEIEFAQSNLIIPRDVVIEANQTGLISESIIDITPKSSLPTGQTLPKPLDKNCDNSLIICNNSRLKGQIGISVDALIRSSTDFANTYTNPEFYQRVNRLLETSAQAATSVAALTQDFRGLTKSFQGQLGTFASTANTVQRATNELTVSTTKTVNQFGITADKFGTTATQASRLLSDLNSLLNTNRSSLVSALNNITETSNQLRLTVTNLSPSLNRLTQGELIKNLEALSANAAQASANLRNATESLNDPKNAVLLQQTLDSARLTFENTQKITSDLDELTGDPNFRQNLRQLVNGLSGLVSSTDQIEQQAKLATTLESMKAAADKPNITIPSLATHPSSNAVTIANNQPQVSSQEKLLQQLRDYAEQGSGEDKKQGSREQREELMKTDY	failed
MRDYSELEIFEGNPLDKWNDIIFHASKKLSKKELERLLELLALLETFIEKEDLEEKFESFAKALRIDEELQQKIESRKTDIVIQSMANILSGNE	not failed
MREALRSLLVALQFLTRLPVRLSAMPTPEQFGRAVLCYPLVGVLIGVVLYAAARSLDGTPPLLQAALLLSLWVALSGALHLDGLADMADAWVGGLGDRERTLAIMKDPRSGPVAVVVLVLVLLLKFSALAALLGQGEAGLLPLAPWLARSSLPLLFLTTPYARPGGLGQAIAEHLPARSLPWVLGVSFGLALAFGLAGLLALLVTLMLFAWLRSRFLARLGGTTGDTAGALVELTECAVLVALAL	failed
MREDNPNWFLRWEEELPSPEELIPISQTLITPHLALAFQIGSPNHHLGSKRTTAIYHQKLQSSTTPTTPTPTPPPMMMNSDFGGGDSTDLGSGSIGGEPARTLKRPRLVWTPQLHKRFVDAVGHLGIKNAVPKTIMQLMSVEGLTRENVASHLQKYRLYLRRMQGGNGNGITGGHVIVSDSATDRLFASSPVPAHFLSPDYLMPPLEHSYMGKHVITQQNQVVRNLRYEDSEYGHGSMKMLKLFPAGN	not failed
MREETKCALIIDESLPLGLIANTAAILGAALGKNKPDLIGETVTDGSGIDHLGIVKIPIPILKGNAELLHQLSQKLLTDEFNDILTVDFTDVAQSIHTYEAYIEAFQSTAASDYRYFGIGICGDKKKVARLTGSLGLLRLEHHHHHH	not failed
MREHHHNLRHYTLYAATIITITTLVRFWFVASGQLDLVQDEAQYWDWTRRLQLSYYSKGPLIAWLIGMWTGVFGDTELGVRFGALAGSALAQVMLFLGVGRLFGRPRLALLTLGVANTTPLFMVAGVLMTTDGPLLLCWLGALLCIHAATRTPRATAPYLLLAMCMAVGVLAKYMMLAVAAIACLHMWLLHRQRLLPQGVALRVVCACLAGAACGMLPILLWNAQNDWVGFKHVGTLAGVTGKASKAFLRLDRLPEHLGAQLGVATPWWLLLMLGMAWRSLRIAWTGVVPPGEPAEAAGREEAVRQSSLLFCAFMPLWGVITLWSLHTRIYPNWPAMSYVGGIILAAAGVERLLDGLGAPRWRRLVPLWFTLGACLFAAAHFQNTLPLPASLNPAARLKGWEDLGRELDRVRHGLPHPDRVFFFSDAYDITAELAFYVPGKPFTFCADFGRRMSQYDLWPSPADKVGWDAVFVRRDGTSVPRELLEMFDSAELYRYQSTHHGAPGRVFTVIVLRGFNGEWPRRSFRSF	failed
MRETGSRPSRSGERRLSWLWLAMAASLVFAVFAVRPPSRIDNVLYDVLTRANAHPADDSILIVDIDDRSLARMGAWPWGRDTHARMVDQLTQAGAKTIVYDVLFSQPSRDPAQDRALGEAIARSGRVYLPEFLIDGGEQAPPRVVGSISEIARGAAGVGLAHVRFDDDGVVRRMAPFEANGPSLKPDLMTVVHRATRPPGSPDVTRGNEQTLLISFAGPPSIYRHASFASVLDGEVPRELIAGRTVFVGLTAPGLGPAFPTPVTPDAASMTGVQLQASVLDALRSGRMITPAGPWSRVGFSLTLLWLLMIGFMALPPRANLLLTIGLCLVGLAYSAALFWLGHIWLSPITTVIGLQLVALIWGWGRLGQVNDLIGRELARVRAVVRGRGAKPAAFSGDVVTRQASSLGDAITRMDDLRRFSADALFSLPDATLVANEQGRVIAANAAAQALFKPHQATLNGASLADLINLLDPLGRRFELDWPQATDRHDPIDLHLPDGRAFQLQTVLRRDEHGGPAGWIVRLADISILTAAMRQREQALQLLTHDMRSPQTSILALLATTPDLPKETADRIAAYARRTLALADGFVQLARAEVTPVSLEPLDLADVAVEAIDEVWPQSLQRKIRIEQVGGEAPLMVLGDRSVLARTFVNLLGNALKYSPSGSTITVNLAEQPSPSGPVACIAIADQGPGFSREEAATAFRPFQRFERPGHELASNGVGLGLAFVQAAVARHGGEVSCRSEPGVGAEFTVRLPRHGVVQGG	failed
MRETIREIQKVAYWLAIKGLSEANAGNISVRLDERPEGYEVKSVNEYGFDYDGPEMYLLITATGSRMREVYEDDSKICLLHVLPGKHYEILHGNGKPTSEFPTHLMIHAKFKEMNPEKKAIVHTHPLNLLTLMNLEEFQELLPKMMKIHPEVLIFFPQGISVVEFEKPGSVELGLKTVEKSEGKDAVLWDKHGVVAFGKDVAEAYDRVEILEKAAEILLRVLSLGRNPTGVPEGWL	not failed
MRETSNPVFRSLPKQRGGYAQFGTGTAQQGFPADPYLAPYREAKATRPLTIDDVVTKTGLTLAMLAGTAVVSYFLVASNVALAMPLTLVGALGGLALVLVATFGRKQDNPAIVLSYAALEGLFLGAISFVLANFTVASANAGVLIGEAILGTMGVFFGMLVVYKTGAIRVTPKFTRMVVAALFGVLVLMLGNLVLAMFNVGGGEGLGLRSPGPLGIIFSLVCIGIAAFSFLIDFDAADQMIRAGAPEKAAWGVALGLTVTLVWLYIEILRLLSYLQNE	failed
MRFLFLLFIVFPAIEIGIFLFLGNLIGILPTVLFMILTGIIGAAAAKKQGTEVYYKVQRDLQYGKMPGEAIADGLCIFIGGLLLMLPGFLSDLAGACLLIPFTRGWCKPILFKWLRGMSKNKRIIIK	failed
MRFMFLHPRLSLEGDPLGLMQLSASLKQRGHIVGLTLLTEDYIEAIRSFQPDMLGVSLMSSDAVMMHQVLNKVRMVFPDLFIIVGGPHPTFDPSCLMVLPVNAICVGEGDEALVEALEQYGREGHVEGIRNVGTVTTPVTLRPLVSDLDDLPFIDRDIVYAKNHIVRDFPLKTFAASRGCHFKCTYCFNHAYNAMYAGLGHVVRRRSVDHLIAEMRDVIARYPTSYIKISDDSFTYRVDSWLEEFAEKYPRLIGLPFYCLLRADVVTRDMVRLLREAGCRSVCMSIEAGAETVRRDVLNRRVSNEKIIESFDLFNEAGIAIYTNSMLAMPRATLADDIATLDLNIRCRPTLGHFTIMAPFPGTRIHDMCEKDGILPERCGGDGDIPTSTGELSKLTTYTDEEKNIQKNIVLLGPLVIRFPVLRGVFLRCLAKLPSNNILFKCIYTVTKNLLFKRIVPVRMSPLLMLRIAIAQVKAARTQVG	failed
MRFNYPPDGVSQLIASRWKIGVALALAVLLFFAFLVLLPLADGIVLGIVFAYIARPIQVKFGKYRKIGALIASLFIFIPIVFIVGAGVVEILNQISWIFENQTSVMSGILDFIHGLEIPSTYVERINNAIWNLFTSLLPAVGSVGLISYAQSIGLFVINFIVSIFFCYFLLADGDRLYCAFIGMIPSDYQNIVNRYASHLDLILKGVFIGNAYSALIVSVTSVFVFRAFGFSHVLALATLVFIASVIPLFAGYMVLVPMALFRYFEQGFQSAALFFVVSSLVIYGPPELILRPFLTSLKSKIHPMLLMLAFLGGAFVGGIAGFFAAPILLGALVAAYRVYQEQIHPELVAQADVYLKDPAKACRTDEKNSFQ	failed
MRFPELEELKNRRTLKWTRFPEDVLPLWVAESDFGTCPQLKEAMADAVEREVFGYPPDATGLNDALTGFYERRYGFGPNPESVFAIPDVVRGLKLAIEHFTKPGSAIIVPLPAYPPFIELPKVTGRQAIYIDAHEYDLKEIEKAFADGAGSLLFCNPHNPLGTVFSEEYIRELTDIAAKYDARIIVDEIHAPLVYEGTHVVAAGVSENAANTCITITATSKAWNTAGLKCAQIFFSNEADVKAWKNLSDITRDGVSILGLIAAETVYNEGEEFLDESIQILKDNRDFAAAELEKLGVKVYAPDSTYLMWLDFAGTKIEEAPSKILREEGKVMLNDGAAFGGFTTCARLNFACSRETLEEGLRRIASVL	failed
MRFPSLLALGLTLPLGAFAAGGDSTGGSTWTNPPKETQTTKECKGVKVWDDKKKRCVAPKNSGLDADTLYDAVRELAYAGRPADAQGVLAAMPDQSDDRVLTYWGFTHRKLGDLDRAAFYYQAAIAANPDNILARSYMGQGFVEAGKTDLAIAQWREITARGGEGSWAEVSLREAIRSGLTYSY	failed
MRFSLFVHMERVSDQQTQKQLYDEMIELCQIADRGGMHAIWTGEHHAMNFTIAPNPFLNIADLANKTKHVRLGTGTVVAPFWHPIKLAGEAAMTDIISNGRLDIGIARGAYSFEYERMVPGMDAWSAGQRLREMIPAIKNLWKGDYEHNGEFWQFPKTTSAPQPLQQPNPPIWVAARDPNSHEFAVQNGCNVQVTPLHLGDEEVEKLMGHFNSACEKFQDIERPEIMLLRHTYVADSEEDAQVAANEMNVFYNYFGAWFKNEREINQGLIAPLSDEEIAAHPFYTPEAMRKNNVIGQAQEVIDRLKAYEAMGYDEYSFWIDTGMSFERKKASLERMINEVMPAFSESKVDRRHATISAVY	failed
